Each block holds one molecule with its values, some of them ahead of it.
Assays:
human monocytes = test: Cytokine treatment of monocytes, expression of VTCN1, PD-L1, CD80 by flow cytometry; format: cell-based; conditions: 24, 48, or 73 hours
Protocol: VTCN1 is expressed in monocytes and macrophages in a tumor microenviroment, the expression induced by cytokines in tumor microenviroment. VTCN1 positive macrophages inhibit T cell activation. Monocytes from healthy donors were treated with IFNγ and IL-6 to assess VTCN1 expression. Monocytes were enriched from fresh PBMC from healthy donor using a monocyte enrichment kit from Stemcell Technologies, and the purity of the obtained monocytes is greater than 95%. Monocytes were cultured in 24 well plate with different concentration of INFγ or LI-6 for 24, 48, or 73 hours, expression of VTCN1, PD-L1, and CD80 was assessed by flow cytometry. […] CD80 was expressed at low level in monocytes, and is not very responsive to cytokine treatment.

293-VTCN1 cells = target: T1, 293-VTCN1 cells (Homo sapiens, UniProt Q7Z7D3); test: Flow cytometry binding to 293-VTCN1 cells (full length)
T1 construct: 293-VTCN1 (full length); expressed in transfected cells; host or cells: HEK293
T1 sequence (Q7Z7D3 25-282): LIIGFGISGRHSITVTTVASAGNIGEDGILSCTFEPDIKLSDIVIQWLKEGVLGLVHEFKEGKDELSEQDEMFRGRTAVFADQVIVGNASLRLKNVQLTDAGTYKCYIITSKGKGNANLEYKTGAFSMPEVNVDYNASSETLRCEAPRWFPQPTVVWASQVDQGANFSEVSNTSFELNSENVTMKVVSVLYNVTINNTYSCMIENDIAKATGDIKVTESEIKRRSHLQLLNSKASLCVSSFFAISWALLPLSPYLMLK
Protocol: For each hybridoma, unique recombinant heavy chains were paired with unique recombinant light chains. These plasmid pairs were transfected into CHO cells in 24-well plates. Twelve days later conditioned medium from each pairing was subjected to concentration determination by OCTET™ and screened by Flow cytometric analysis for binding to 293-VTCN1 cells.
(§1) Briefly, the 7C8 antibody was incubated with 293 cells, 293-VTCN1 (full length), 293-VTCN1-IgV domain, 293-VTCN1-IgC domain cell lines for 30 min at 4° C., unbound antibody was washed away, cells were then incubated with anti-human-Alexa488 conjugate, and analyzed by flow cytometry.
Antibody concentration was determined by OCTET™ using protein G biosensor. 0.05 μg/ml, 0.1 μg/ml, 0.5 μg/ml, 1 μg/ml, 5 μg/ml, 10 μg/ml antibodies were incubated with live cells for 30 min. on ice, unbound antibodies were washed off, and a conjugated anti-mouse 2nd antibody was added to the wells for 15 min. Cells were washed twice with flow buffer and analyzed using MACSQuant Analyzer 10 flow cytometer (Miltenyi Biotec, Bergisch Gladbach, Germany). Results from flow cytometry assays indicate that mouse anti-VTCN1 antibodies are capable of binding to 293-VTCN1 cells and MX-1 cells.

MX-1 cells = test: Flow cytometry binding to MX-1 cells; design: species or system human; conditions: TNBC cell line
Protocol: (§2) Supernatant from hybridoma wells, containing VTCN1 specific antibodies, were re-tested on human breast cell lines SKBR3 and ZR-75-1. 70% confluent MX-1 cells in 10 cm dish were gently washed with 1× cold PBS once, 7 ml cold flow buffer (1×PBS, 0.5% BSA, 2 mM EDTA) was then added, the cells were gently scraped in to flow buffer using rubber cell lifter, pipet up down with 10 ml transfer pipets gently to resuspend the cells. The cells were pelleted by centrifuging them for 5 minutes at 1200 rpm at room temperature. The cell pellets were resuspended in cold flow buffer, the cells were counted and the concentration was adjusted to 1×10^6 cells per 1 mL. Using a multichannel pipette, 200 μL was collected and transferred to 96-V bottom polypropylene plates and spun at 1250 rpm for 5 min at 4° C. to pellet the cells. The cell pellets were resuspended with hybridoma supernatant diluted 2-fold with cold flow buffer and incubated at 4° C. for 30 min. After incubation, cells were washed 2× with flow buffer and then labeled with anti-rat Alexa 647 secondary antibodies for 30 min at 4° C. Unbound secondary antibodies were removed by washing the cells 2× with flow buffer. […]
Antibody concentration was determined by OCTET™ using protein G biosensor. […] Cells were washed twice with flow buffer and analyzed using MACSQuant Analyzer 10 flow cytometer (Miltenyi Biotec, Bergisch Gladbach, Germany). […]

SKBR3 cells = test: Flow cytometry binding to SKBR3 cells (hybridoma screening); design: species or system human
Protocol: as §2, with “buffer. Cells were then resuspended in 200 μL of flow buffer containing PI to identify dead cells and remove from analysis.” for “buffer.”

ZR-75-1 cells = test: Flow cytometry binding to ZR-75-1 cells; design: species or system human
Protocol: as §2, with “buffer. Cells were then resuspended in 200 μL of flow buffer containing PI to identify dead cells and remove from analysis.” for “buffer.”

293-VTCN1 (monkey) = test: Flow cytometry binding to 293-VTCN1 (monkey) cells; design: species or system cynomolgus monkey
Excerpt: (§3) Two constructs were made, one with an IgV domain only and one with an IgC domain only. 293 cells were transfected with VTCN1-IgV and VTCN1-IgC constructs, and stable cell lines of 293 expressing VTCN1-IgV or VTCN1-IgC domains were made. Expression constructs also made to express VTCN1 (monkey, 99% identical to human VTCN1) and VTCN1 (mouse, 88% identical to human VTCN1), stable 293-VTCN1 (monkey), and 293-VTCN1 (mouse) cell lines made by transfecting these constructs.
(§4) Flow cytometry analysis was also performed with 7C8 binding to 293-VTCN1 (monkey) and 293-VTCN1 (mouse).

293-VTCN1 (mouse) = target: T2, 293-VTCN1 (mouse) (Mus musculus, UniProt Q7TSP5); test: Flow cytometry binding to 293-VTCN1 (mouse) cells
T2 construct: expressed in transfected cells
T2 sequence (Q7TSP5 25-257): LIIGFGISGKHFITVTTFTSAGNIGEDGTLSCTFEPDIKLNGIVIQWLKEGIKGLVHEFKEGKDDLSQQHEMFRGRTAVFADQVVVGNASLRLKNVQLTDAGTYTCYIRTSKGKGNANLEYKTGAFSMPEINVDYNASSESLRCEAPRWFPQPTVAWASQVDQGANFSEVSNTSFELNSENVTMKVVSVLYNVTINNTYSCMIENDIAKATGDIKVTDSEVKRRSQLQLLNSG
Excerpt: as §3, §4

VTCN1 IgV domain = target: T3, VTCN1 IgV domain (Homo sapiens, UniProt Q7Z7D3); test: Flow cytometry binding to 293-VTCN1-IgV domain cells; conditions: IgV domain only
T3 construct: one with an IgV domain only and one with an IgC domain only; expressed in transfected cells
T3 sequence (Q7Z7D3 35-146 limits assumed): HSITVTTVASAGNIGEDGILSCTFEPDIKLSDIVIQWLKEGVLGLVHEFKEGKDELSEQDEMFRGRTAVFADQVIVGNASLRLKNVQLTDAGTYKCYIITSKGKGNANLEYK
Excerpt: as §3, §1
(§5) It was also assessed whether these antibodies bind to IgV or IgC domain of VTCN1 protein, using 293-VTCN1-IgV domain expressing cells and 293-VTCN1-IgC domain expressing cells using FACS analysis, as in Example 3.

VTCN1 IgC domain = target: T4, VTCN1 IgC domain (Homo sapiens, UniProt Q7Z7D3); test: Flow cytometry binding to 293-VTCN1-IgC domain cells; conditions: IgC domain only
T4 construct: one with an IgV domain only and one with an IgC domain only; expressed in transfected cells
T4 sequence (Q7Z7D3 153-241 limits assumed): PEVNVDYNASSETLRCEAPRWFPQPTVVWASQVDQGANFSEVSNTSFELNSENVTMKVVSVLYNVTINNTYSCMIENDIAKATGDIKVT
Excerpt: as §3, §1, §5

B1: IFNγ: cytokine added to human monocyte cultures (protein, UniProt P01579 24-161, looked up)
Interferon gamma: QDPYVKEAENLKKYFNAGHSDVADNGTLFLGILKNWKEESDRKIMQSQIVSFYFKLFKNFKDDQSIQKSVETIKEDMNVKFFNSNKKKRDDFEKLTNYSVTDLNVQRKAIHELIQVMAELSPAAKTGKRKRSQMLFRG
VTCN1 and PD-L1 expression in monocytes (human monocytes): VTCN1 and PD-L1 expression was induced

binding to 293-VTCN1 cells (full length VTCN1) (293-VTCN1 cells): binds to full length VTCN1
cross reactivity with mouse VTCN1 (293-VTCN1 (mouse)): cross reacts
binding to IgV domain of VTCN1 (VTCN1 IgV domain): does not bind
binding to IgC domain of VTCN1 (VTCN1 IgC domain): does not bind
B2: 7C8: fully human VTCN1 antibody; VH SEQ ID NO: 212, VL SEQ ID NO: 216 (antibody, V domains shown)
VH: QVQLQESGPGLVKPSETLSLTCAVSGYSISSGYYWGWIRQPPGKGLEWIGSIYHSGTTYYNPSLKSRVTISVDTSKNQFSLKLNSVTAADTAVYYCATYSSGWYFYFDYWGQGTLVTVSS
VL: DIQLTQSPSFLSASVGDRVTITCRASQGISSYLAWYQQKPGKAPKLLIYVASTLQSGVPSRFSGSGSGTEFTLTISSLQPEDFATYYCQQLNSYPITFGQGTRLEIK
binding to MX-1 cells (MX-1 cells): binds
binding to SKBR3 cells (SKBR3 cells): binds
binding to ZR-75-1 cells (ZR-75-1 cells): binds
cross reactivity with monkey VTCN1 (293-VTCN1 (monkey)): cross reacts

From patent US12427163B2, “Anti-VTCN1 antibodies and antibody drug conjugates” (Bluefin BioMedicine, Inc., priority 2017, dated 2025)
